According to the supplement of paper PMC6379048:

Tests used:
Assay in all cases: Kd (EC50 corrected by depletion factor)
DIS3L2 = biological target: T1, DIS3L2 (UniProt Q8IYB7)
T1 sequence: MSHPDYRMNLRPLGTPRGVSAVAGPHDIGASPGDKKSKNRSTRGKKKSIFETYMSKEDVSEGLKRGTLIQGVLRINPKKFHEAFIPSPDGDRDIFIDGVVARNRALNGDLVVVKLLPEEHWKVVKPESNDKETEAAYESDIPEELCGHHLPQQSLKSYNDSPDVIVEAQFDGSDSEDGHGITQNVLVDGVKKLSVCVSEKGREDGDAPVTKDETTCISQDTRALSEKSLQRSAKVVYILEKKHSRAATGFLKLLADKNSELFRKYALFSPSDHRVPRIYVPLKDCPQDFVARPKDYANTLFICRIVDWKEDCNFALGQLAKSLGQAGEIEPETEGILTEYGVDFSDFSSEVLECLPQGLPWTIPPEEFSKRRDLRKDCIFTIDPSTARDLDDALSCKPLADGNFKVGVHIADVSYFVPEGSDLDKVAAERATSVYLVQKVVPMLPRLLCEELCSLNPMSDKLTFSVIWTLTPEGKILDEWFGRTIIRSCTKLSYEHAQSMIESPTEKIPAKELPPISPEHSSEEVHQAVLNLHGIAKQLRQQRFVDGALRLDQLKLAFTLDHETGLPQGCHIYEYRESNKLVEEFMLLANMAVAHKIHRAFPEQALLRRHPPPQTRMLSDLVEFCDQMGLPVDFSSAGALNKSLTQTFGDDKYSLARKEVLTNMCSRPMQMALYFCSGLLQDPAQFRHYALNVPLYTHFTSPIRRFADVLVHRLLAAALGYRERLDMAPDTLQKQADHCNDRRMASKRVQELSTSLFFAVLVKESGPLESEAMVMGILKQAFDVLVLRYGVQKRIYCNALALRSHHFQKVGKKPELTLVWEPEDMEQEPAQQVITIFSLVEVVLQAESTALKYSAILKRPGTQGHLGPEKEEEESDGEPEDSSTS
Protocol: (§1)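 Competition-binding assay: HEK293-FT cell lysate (2.5 mg protein) pre-incubated 1 h at 4°C with free motif-containing RNA oligos (0 to 30 µM, 12 doses), then pulled down with the same 5'-amino-C6 RNA oligos immobilised on NHS-Sepharose beads (30 min, 4°C). Bound proteins were quantified by label-free LC-MS/MS and normalised to the water control. EC50 came from a four-parameter log-logistic fit; Kd = EC50 x depletion factor. Random/reversed control probes are dropped.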

CELF1 = biological target: T2, CELF1 (UniProt Q92879)
T2 sequence: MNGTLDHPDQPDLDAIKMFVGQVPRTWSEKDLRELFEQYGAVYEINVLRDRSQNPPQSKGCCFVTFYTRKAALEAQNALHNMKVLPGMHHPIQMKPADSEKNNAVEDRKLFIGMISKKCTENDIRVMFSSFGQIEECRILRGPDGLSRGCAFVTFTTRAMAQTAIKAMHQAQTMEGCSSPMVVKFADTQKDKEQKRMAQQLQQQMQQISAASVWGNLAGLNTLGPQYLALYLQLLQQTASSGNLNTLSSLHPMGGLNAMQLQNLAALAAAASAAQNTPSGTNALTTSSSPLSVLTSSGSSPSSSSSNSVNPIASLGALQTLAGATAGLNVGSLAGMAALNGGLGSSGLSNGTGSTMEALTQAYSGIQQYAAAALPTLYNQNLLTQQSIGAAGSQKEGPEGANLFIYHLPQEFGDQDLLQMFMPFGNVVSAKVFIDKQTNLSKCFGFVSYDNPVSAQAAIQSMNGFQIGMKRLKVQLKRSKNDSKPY
Protocol: as §1

DHX36 = biological target: T3, DHX36 (UniProt Q9H2U1)
T3 sequence: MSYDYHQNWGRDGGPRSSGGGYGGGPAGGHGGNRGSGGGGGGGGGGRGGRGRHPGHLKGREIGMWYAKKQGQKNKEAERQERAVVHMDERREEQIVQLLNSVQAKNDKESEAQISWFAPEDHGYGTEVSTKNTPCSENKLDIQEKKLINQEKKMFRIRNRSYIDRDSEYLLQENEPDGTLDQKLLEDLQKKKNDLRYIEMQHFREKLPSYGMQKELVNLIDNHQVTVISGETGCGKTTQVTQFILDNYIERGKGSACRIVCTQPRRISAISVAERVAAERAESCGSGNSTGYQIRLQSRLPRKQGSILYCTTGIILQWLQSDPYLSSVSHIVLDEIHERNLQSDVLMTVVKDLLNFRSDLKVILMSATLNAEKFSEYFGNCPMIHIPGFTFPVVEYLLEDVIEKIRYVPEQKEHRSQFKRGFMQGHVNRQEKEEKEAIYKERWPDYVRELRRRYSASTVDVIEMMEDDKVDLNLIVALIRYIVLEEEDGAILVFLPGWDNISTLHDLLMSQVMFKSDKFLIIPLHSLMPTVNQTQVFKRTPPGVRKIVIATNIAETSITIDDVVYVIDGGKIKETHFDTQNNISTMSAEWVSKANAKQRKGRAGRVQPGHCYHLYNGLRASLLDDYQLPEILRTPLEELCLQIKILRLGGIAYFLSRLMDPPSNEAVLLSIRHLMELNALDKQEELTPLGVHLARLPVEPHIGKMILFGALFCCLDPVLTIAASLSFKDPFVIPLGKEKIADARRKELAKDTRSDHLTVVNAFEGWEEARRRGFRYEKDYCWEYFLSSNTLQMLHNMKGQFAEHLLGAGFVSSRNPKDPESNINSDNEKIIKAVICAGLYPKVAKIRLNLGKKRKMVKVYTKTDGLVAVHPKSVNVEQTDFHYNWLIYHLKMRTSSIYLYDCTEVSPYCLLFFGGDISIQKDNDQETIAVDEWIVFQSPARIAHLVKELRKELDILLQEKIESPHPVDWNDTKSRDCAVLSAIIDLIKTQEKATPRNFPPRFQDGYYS
Protocol: as §1

LIN28B = biological target: T4, LIN28B (UniProt Q6ZN17)
T4 sequence: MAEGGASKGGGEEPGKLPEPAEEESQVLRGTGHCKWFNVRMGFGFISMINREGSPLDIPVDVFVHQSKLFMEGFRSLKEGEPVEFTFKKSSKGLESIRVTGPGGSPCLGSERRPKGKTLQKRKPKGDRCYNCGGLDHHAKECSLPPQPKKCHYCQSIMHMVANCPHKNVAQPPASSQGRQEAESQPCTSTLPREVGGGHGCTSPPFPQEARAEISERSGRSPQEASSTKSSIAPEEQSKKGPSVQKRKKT
Protocol: as §1

PHAX = PHAX (UniProt Q9H814)
Protocol: as §1

PHAX, sequence (Q9H814 whole entry): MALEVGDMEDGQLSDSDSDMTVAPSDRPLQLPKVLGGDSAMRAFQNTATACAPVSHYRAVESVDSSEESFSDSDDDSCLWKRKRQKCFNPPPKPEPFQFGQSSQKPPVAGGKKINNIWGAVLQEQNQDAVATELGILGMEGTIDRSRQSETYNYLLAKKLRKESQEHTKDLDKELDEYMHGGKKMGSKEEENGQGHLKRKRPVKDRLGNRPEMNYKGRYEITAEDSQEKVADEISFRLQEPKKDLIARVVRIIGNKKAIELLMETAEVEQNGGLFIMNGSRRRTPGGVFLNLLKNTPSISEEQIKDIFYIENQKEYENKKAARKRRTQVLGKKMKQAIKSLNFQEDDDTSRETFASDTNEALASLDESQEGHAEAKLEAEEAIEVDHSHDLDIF

Sequence	Kd (DIS3L2) [nM]	Kd (CELF1) [nM]	Kd (DHX36) [nM]	Kd (LIN28B) [nM]	Kd (PHAX) [nM]
UAUUUAU	290	350	632	1100	5070
CUGUCCU	774	3660	1850	1220	533
AAUAAA	383	162	573	610	15500
